Results as given in article PMC6777938, “Evolutionary emergence of Hairless as a novel component of the Notch signaling pathway” (eLife, 2019).

B1: His-tagged Parasteatoda tepidariorum S-CAP residues 233-432, wild type (domain or fragment)
chain: TVNTEDPPKDSINFLDHSRVTDPCSAASETSLPQDVPATSTVGSLKFFLGGRLVLKLNAQQDGGSGNKCQWVQSNDLPKHSNHNKKDKHKKKFAPYSYSSSGTQKPLKKGDDTSAVPDCDPSGIKKPRLKEYETSENSALGLLLCSSSWTPPVADGQESIDVDDTSSKTSEGYISPILSNNSRTSKIDTIKHDFASNPNT
notes: 200 residues, fits 233-432; Su(H)-Co-repressor Adaptor Protein (S-CAP), house spider Parasteatoda tepidariorum, residues 233-432 with the SBD-like motif; same vector and leader as m9; also called HIS-PtepSCAP233-432 WT; Ptep s-CAP233-432 WT; source: E. coli (codon-optimized for expression in E. coli, pRSET-C), isolated
B2: His-tagged Drosophila melanogaster Hairless residues 192-389, wild type (domain or fragment)
chain: AVVAAAAGTAKIGKGSNSGGSFDMGRTPISTHGNNSWGGYGGRLQFFKDGKFILELARSKDGDKSGWVSVTRKTFRPPSAATSATVTPTSAVTTAYPKNENSTSLSFSDDNSSIQSSPWQRDQPWKQSRPRRGISKELSLFFHRPRNSTLGRAALRTAARKRRRPHEPLTTSEDQQPIFATAIKAENGDDTLKAEAAE
notes: 198 residues, fits 192-389 and L235, F237, L245, L247, W258; the printed DNA starts with linker codons R-W-I-R before the insert; also called HIS-H192-389 WT; Dmel Hairless192-389 WT; source: E. coli (codon-optimized for expression in E. coli, pRSET-C), isolated

Molecular target: T1, GST-tagged Drosophila Su(H) (Drosophila melanogaster, UniProt P28159 1-594)
T1 construct: Suppressor of Hairless [Su(H)], Drosophila melanogaster; construct GST-Su(H) pGEX-KG of Bailey and Posakony, 1995; also called GST-Su(H); Suppressor of Hairless; source: E. coli, isolated, on Sepharose beads
T1 sequence (P28159 whole entry): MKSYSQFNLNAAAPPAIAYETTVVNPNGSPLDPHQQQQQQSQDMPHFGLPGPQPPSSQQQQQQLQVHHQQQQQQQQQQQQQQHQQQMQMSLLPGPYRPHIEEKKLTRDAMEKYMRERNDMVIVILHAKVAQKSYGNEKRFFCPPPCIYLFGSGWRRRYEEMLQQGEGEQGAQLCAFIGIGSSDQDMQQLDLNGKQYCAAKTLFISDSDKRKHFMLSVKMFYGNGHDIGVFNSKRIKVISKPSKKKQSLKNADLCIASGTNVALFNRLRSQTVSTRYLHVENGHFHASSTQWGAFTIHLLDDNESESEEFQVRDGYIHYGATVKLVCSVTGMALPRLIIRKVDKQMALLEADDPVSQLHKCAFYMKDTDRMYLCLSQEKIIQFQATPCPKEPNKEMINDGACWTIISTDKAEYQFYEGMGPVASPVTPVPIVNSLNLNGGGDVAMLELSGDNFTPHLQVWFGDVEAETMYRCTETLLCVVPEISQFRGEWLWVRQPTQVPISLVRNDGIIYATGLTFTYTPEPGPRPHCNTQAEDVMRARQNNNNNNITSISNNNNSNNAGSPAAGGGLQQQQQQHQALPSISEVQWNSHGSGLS
Experiment: pull-down; in vitro; Sepharose beads bearing GST-Su(H) or only GST, His-tagged Hairless or S-CAP segments in solution; Ptep S-CAP also at 10X input
Settings: both partners purified

| Binder | binding result |
| --- | --- |
| B1 | binds |
| B2 | binds |
